Reference: article PMC7749050 (ACS synthetic biology, 2020)

B1: LDB-14-p65, mammalian two-hybrid prey (VHH)
VHH: EVQLQASGGGFVQPGGSLRLSCAASGTTSRWESMGWFRQAPGKEREFVSAISWQNNSVPYYADSVKGRFTISRDNSKNTVYLQMNSLRAEDTATYYCAAQHNFLGHRYWGQGTQVTVSS
B2: LDB-3-p65, mammalian two-hybrid prey (VHH)
VHH: EVQLQASGGGFVQPGGSLRLSCAASGFTWDHYIMGWFRQAPGKEREFVSAISENGDAWNYYADSVKGRFTISRDNSKNTVYLQMNSLRAEDTATYYCAIGFDVPSGRSWQGSHFWMYWGQGTQVTVSS

Assays:
Experiment in all cases: two-hybrid
[1] = target: Rhodopseudomonas palustris BphP1 (RpBphP1), mammalian two-hybrid construct (Rhodopseudomonas palustris)
[2] = target: T1, GAL4-BD-DrBphP, mammalian two-hybrid bait (Deinococcus radiodurans (strain not …, UniProt Q9RZA4))
T1 sequence (Q9RZA4 whole entry, looked up, the tested form may be a part): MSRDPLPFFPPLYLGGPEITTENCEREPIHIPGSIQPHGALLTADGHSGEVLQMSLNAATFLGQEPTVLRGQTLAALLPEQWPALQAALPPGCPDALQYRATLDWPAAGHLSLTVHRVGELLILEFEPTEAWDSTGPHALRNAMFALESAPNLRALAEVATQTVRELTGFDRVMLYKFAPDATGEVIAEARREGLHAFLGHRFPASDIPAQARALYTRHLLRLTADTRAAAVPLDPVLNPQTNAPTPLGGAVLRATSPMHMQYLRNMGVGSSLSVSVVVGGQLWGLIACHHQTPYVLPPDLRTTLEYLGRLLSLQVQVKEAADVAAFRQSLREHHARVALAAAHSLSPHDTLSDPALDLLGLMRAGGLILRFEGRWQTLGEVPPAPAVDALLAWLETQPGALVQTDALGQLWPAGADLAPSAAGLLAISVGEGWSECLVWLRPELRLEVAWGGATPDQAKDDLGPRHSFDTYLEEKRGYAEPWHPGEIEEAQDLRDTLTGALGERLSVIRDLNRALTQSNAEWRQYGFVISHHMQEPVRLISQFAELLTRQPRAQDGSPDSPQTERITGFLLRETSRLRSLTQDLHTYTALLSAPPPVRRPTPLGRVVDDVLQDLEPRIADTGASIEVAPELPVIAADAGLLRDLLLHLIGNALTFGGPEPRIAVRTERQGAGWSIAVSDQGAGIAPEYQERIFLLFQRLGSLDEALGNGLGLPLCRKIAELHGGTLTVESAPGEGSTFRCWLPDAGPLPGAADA

[3] = target: T1, GAL4-BD-DrBphP, mammalian two-hybrid …; remark: listed apart in the source

Row | Molecule | fold increase of luciferase expression, 775-nm light over dark [1] [fold] | fold increase of GFP level, 654-nm light over dark [2] [fold] | fold increase of luciferase expression, 654-nm light over dark [3] [fold]
1 | PpsR2, mammalian two-hybrid construct (natural protein) | 2.95 |  | 
2 | B1 |  | ~39 | ~19.1
3 | B2 |  | ~44 | ~19.5
